Results taken from the supplement of paper PMC10567573.

B1: VAMP4 (parent)
chain: FLRGPSGPRFGPRNDKIKHVQNQV

Variants of: B1
Test: protein stability index of a GFP-peptide fusion (GPS, HEK-293T) (PSI 1-6); higher = more stable
Conditions: c terminus: a fixed tail appended
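Note: lentivirally expressed fusions sorted by FACS into six bins by GFP to DsRed ratio, PSI derived from sequencing read proportions per bin multiplied by bin number.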

Protein stability index: each site, then its substitutions
P5: V 2.29; W 1.55; Y 2.04
S6: A 2.76; C 2.03; D 2.95; E 3.94; F 2.64; G 2.49; H 2.45; I 1.97; K 2.65; L 1.54; M 2.86; N 2.43; P 2.79; Q 2.56; R 2.92; T 2.77; V 2.12; W 1.29; Y 2.11
G7: A 2.69; C 2.94; D 2.44; E 2.79; F 1.85; H 2.86; I 3.02; K 2.32; L 2.37; M 2.24; N 2.74; P 3.24; Q 2.68; R 1.71; S 2.77; T 2.66; V 2.44; Y 1.96
P8: A 2.62; C 2.44; D 3.01; E 3.19; F 2.28; G 2.41; H 2.52; I 2.53; K 2.07; L 1.61; M 2.53; N 2.63; Q 1.96; R 2.35; S 2.58; T 2.71; V 2.54; W 1.79; Y 2.47
R9: A 2; C 1.76; D 2.91; E 3; F 1.9; G 2.49; H 2.28; I 2.17; K 3.87; L 2.06; M 2.46; N 3.01; P 2.49; Q 2.93; S 2.69; T 2.75; V 2.18; W 2.93; Y 2.04
F10: A 2.72; C 2.53; D 3.15; E 3.29; G 2.89; H 3.07; I 2.99; K 2.57; L 3.21; M 3.24; N 2.95; P 3.02; Q 3.14; R 3.15; S 2.86; T 3.36; V 2.67; W 2.09; Y 2.27
G11: A 2.75; C 2.37; D 2.63; E 3.51; F 2.2; H 2.81; I 2.12; K 2.57; L 2.47; M 2.52; N 2.95; P 2.91; Q 2.78; R 2.34; S 2.65; T 2.18; V 1.97; W 2.45; Y 2.16
P12: A 2.54; C 2.13; D 3.08; E 3.63; F 2.7; G 2.99; H 2.75; I 2.87; K 2.89; L 2.2; M 2.61; N 3.12; Q 2.34; R 2.59; S 3.27; T 3.37; V 2.86; W 1.88; Y 2.75
R13: A 2.32; C 2.33; D 3.39; E 3.15; F 2.35; G 2.74; H 2.17; I 2.43; K 2.58; L 2.02; M 2.89; N 3.74; P 3.06; Q 3.6; S 3.11; T 2.8; V 2.62; W 1.87; Y 2.31
N14: A 2.35; C 2.73; D 2.96; E 3.39; F 2.29; G 2.92; H 2.73; I 2.2; K 2.41; L 2.55; M 2.15; P 3.04; Q 2.91
